Read-outs that look alike come from different tables or passages of the source.
B1: der p 1: dust mite allergen (protein, UniProt P08176 99-320, looked up)
Peptidase 1: TNACSINGNAPAEIDLRQMRTVTPIRMQGGCGSCWAFSGVAATESAYLAYRNQSLDLAEQELVDCASQHGCHGDTIPRGIEYIQHNGVVQESYYRYVAREQSCRRPNAQRFGISNYCQIYPPNVNKIREALAQTHSAIAVIIGIKDLDAFRHYDGRTIIQRDNGYQPNYHAVNIVGYSNAQGVDYWIVRNSWDTNWGDNGYGYFAANIDLMMIEEYPYVVIL
B2: papain: plant protease (protein, UniProt P00784 134-345, looked up)
Papain: IPEYVDWRQKGAVTPVKNQGSCGSCWAFSAVVTIEGIIKIRTGNLNEYSEQELLDCDRRSYGCNGGYPWSALQLVAQYGIHYRNTYPYEGVQRYCRSREKGPYAAKTDGVRQVQPYNEGALLYSIANQPVSVVLEAAGKDFQLYRGGIFVGPCGNKVDHAVAAVGYGPNYILIKNSWGTGWGENGYIRIKRGTGNSYGVCGLYTSSFYPVKN

How the values were obtained:
PAR2 = settings: in vitro, cited from earlier work
From the text: PAR2 signaling has been implicated in the development of inflammatory and bowel diseases, asthma, itch and pain. The receptor is expressed on many types of cells including keratinocytes, sensory neurons, fibroblasts, endothelial cells, and inflammatory cells, [3]. Consistent with this broad expression, PAR2 is involved in numerous physiologic and pathophysiologic processes in response to both endogenous and exogenous proteases.

human PAR2 = assay: Fura-2 calcium imaging in HeLa cells transfected with PAR2 cDNA; type: cell-based; settings: PAR2-transfected HeLa; KVDGTS 100 µM, cathepsin S 2 µM, papain 2 µM, trypsin 10 nM; second agent after up to 60 minutes; room temperature
Protocol: Human PAR2 cDNA was cloned as an Xho I-Hind III fragment (1206 bp) into pcDNA3.1(−). 10 µg of DNA were diluted into 0.5 ml of DMEM and mixed with 0.5 ml of DMEM containing 10 µl of Lipofectamine 2000 transfection reagent and incubated at room temperature for 20 minutes. HeLa cells were grown to confluence, trypsinized and 1×10^6 cells were pelleted in a 15 ml tube by centrifugation at 1000 rpm for 5 minutes. The DMEM-Lipofectamine 2000-DNA mixture (1 ml) was added to the cell pellet, resuspended gently and incubated at room temperature for 20 minutes. Four ml of complete DMEM with 10% FBS were added to the tube, mixed by inverting the tube several times, plated into a 96-well glass bottom plate at 20,000 cells/well, and placed in a 37°C CO2 incubator. HeLa cells transfected with vector alone or salmon sperm DNA (shown in the figures) were plated as a control. The medium was aspirated two days after transfection. Fura-2 was used as a ratiometric calcium-sensitive indicator as follows. 100 µl of complete DMEM containing 2 µM of Fura-2 were added to each well and left at room temperature in the dark for 1 hr. Following loading with Fura-2, the medium was aspirated and replaced with 90 µl of HEPES-buffered saline (20 mM HEPES, 115 mM NaCl, 5.4 mM KCl, 2 mM CaCl2, 0.8 mM MgCl2, 13.8 mM glucose, pH 7.4).
Imaging was performed using a Zeiss Axiovert 200 M microscope platform equipped with a flipping filter wheel for ratiometric imaging. Axiovision software, version 4.6 was used for image analysis of the cells which were excited at 340 nm and 380 nm. Ten µl of peptide agonist were added at 20 seconds after the start of the excitation procedure. Images were taken every 5 seconds, including at zero time, during a 3-minute period or longer if required. The software later analyzed all images taken during each excitation period. Typically, ratiometric changes were measured in 10–20 cells in each image. An average of the fluorescence of the cells in each image was calculated and plotted against time in seconds.
HeLa cells transfected with PAR2 cDNA were subjected to ratiometric imaging as described above with PAR2 peptides, SLIGRL, KVDGTS, and SLIGKVDGTS in addition to the reverse peptides LRGILS and STGDVK at concentrations from 1 nM - 1 mM. Each of the concentration-dependent readings was performed in triplicate. Maximum intensities at each of the dilutions were calculated and plotted against concentration using GraphPad/PRISM software version 6.0 (Irvine, CA). Error bars represent +/−SEM.

Row | Molecule | PAR2 activation (in words) (PAR2; dust mite allergen) | effect as first agent on calcium response to second agent (in words) (human PAR2) | PAR2 activation (in words) (PAR2; plant proteases)
1 | B1 | supporting activation |  | 
2 | B2 |  | failed to induce a calcium response at any time up to 60 minutes | supporting activation

— PMC4070910, “Cathepsin S Signals via PAR2 and Generates a Novel Tethered Ligand Receptor Agonist” (PLoS ONE, 2014)
